Results published in patent US6001604.

Biological target: SOD-proinsulin hybrid polypeptide expressed by plasmid pBAST-R (SOD-Insulin B chain-Lys-Arg-Insulin A chain hybrid polypeptide) (human)

trypsin (Sigma) (enzyme)
human insulin generation after enzymatic cleavage (radioimmunoassay and RP-HPLC) (% of the theoretical yield): 80
